Assay results reported in PMC8106883.

Target: angiotensin-converting enzyme 2 (ACE2) on transfected HEK293T cells (human) (UniProt Q9BYF1)

How did the fold binding relative to WT S1-Fc turn out when S1-hFc N282Q (Fc fusion) was run?
Its fold binding relative to WT S1-Fc is 3 fold.
